Experimental data published in publication PMC8931250, “A SURF4-to-proteoglycan relay mechanism that mediates the sorting and secretion of a tagged variant of sonic hedgehog” (Proceedings of the National Academy of Sciences of the …, 2022).

B1: GST-SURF4^49-60 [human] / CW peptides (KRRHPKKC) [not stated (human or mouse cDNA cloned)] (parent complex)
chain 1: SEQRDYIDTTWN
chain 2: KRRHPKKC

Variants of: B1
Assay: peptide pull-down (peptides on thiopyridone Sepharose 6B), anti-GST immunoblot quantification; n = 3, mean ± SD; parent: 1; read off a plot

Q: For chain 2 K1A, chain 2 R2A, chain 2 R3A, chain 2 K6A, chain 2 K7A, which ratio to parent is on record?
A: ~0.03
